A short description of the data set: Stability of PAF-AH in serum (storage temperatures, freeze-thaw cycles). The data set is classed as physicochemical, human. The method, then: Sera may have been stored under differing conditions, subjecting PAF-AH to thermal stresses. In order to evaluate the effect of handling and storage conditions on PAF-AH activity, serum samples were subjected to a range of temperatures and freeze-thaw cycles and assayed for residual PAF-AH activity as detailed below.
The final concentration of the substrate was 160 μM. […] The reaction was stopped in an ice bath.
Serum samples from individuals with fatal peanut anaphylaxis and from various control groups may have been stored under differing conditions, subjecting PAF-AH to thermal stresses. In order to evaluate the effect of handling and storage conditions on PAF-AH activity, sera were stored at different temperatures. The stability of PAF-AH stored at 4° C. and 23° C. and subjected to repeated cycles of freeze-thawing was assessed. PAF-AH levels were measured at specified times following storage at 23° C. (2, 4, 8, 24 and 48 hours) and at 4° C. (5 and 10 days) and following 5 sequential cycles of freezing and thawing. To assess the stability of PAF-AH to long term storage, serum samples stored at −70° C. since 1998 were re-assayed for PAF-AH and compared to results of assay results prior to storage.

B1: PAF-AH: the enzyme that degrades PAF; endogenous serum enzyme measured as biomarker (protein, UniProt Q13093 22-441, looked up)
Platelet-activating factor …: FDWQYINPVAHMKSSAWVNKIQVLMAAASFGQTKIPRGNGPYSVGCTDLMFDHTNKGTFLRLYYPSQDNDRLDTLWIPNKEYFWGLSKFLGTHWLMGNILRLLFGSMTTPANWNSPLRPGEKYPLVVFSHGLGAFRTLYSAIGIDLASHGFIVAAVEHRDRSASATYYFKDQSAAEIGDKSWLYLRTLKQEEETHIRNEQVRQRAKECSQALSLILDIDHGKPVKNALDLKFDMEQLKDSIDREKIAVIGHSFGGATVIQTLSEDQRFRCGIALDAWMFPLGDEVYSRIPQPLFFINSEYFQYPANIIKMKKCYSPDKERKMITIRGSVHQNFADFTFATGKIIGHMLKLKGDIDSNVAIDLSNKASLAFLQKHLGLHKDFDQWDCLIEGDDENLIPGTNINTTNQHIMLQNSSGIEKYN
On to B1, for which the “residual PAF-AH activity” value (6 fresh sera, 5 freeze-thaw cycles, relative to fresh sera) was 90-105%. In addition, the “mean PAF-AH activity” value by setting is: (fresh sera in 1998 (n=25), before storage) 27.04 ± 9.92 nmol/mL/min; (same sera after eight years at −70° C. (p=0.1047)) 22.98 ± 7.23 nmol/mL/min. For the same molecule, under “sera stored at 4° C. for 10 days”, the “retained initial PAF-AH activity” value was 96-102%. Besides, the “retained PAF-AH activity of fresh sera” value (sera stored at 23° C. for up to 48 hours) is 84-92%.

These data come from patent US8562982B2, “Use of platelet activating factor acetylhydrolase as a biomarker for anaphylaxis” (Allertech Laboratory Inc., priority 2007, dated 2013).
